Experimental findings from US20240116985A1, “STAPLED PEPTIDES AND METHODS THEREOF” (priority 2020, published 2024) are described below.

B1: I-2267 (peptide)
peptide: [ProSAm3]D[tBuAla][B5(3)]D[TfeGA]AAFL[PyrS2″][3Thi][Bta]Q-NH2
modifications: staple (positions not given here); staple 4-11; not fully specified (bridges); also: staple double bonds reduced to -CH2-CH2-

Starred links: 1 amine or outer side, 2 acyl side, 3 side chain; linkers in the order of their positions; H or OH if unused. Positions of bridges follow the written chain, without caps; N, C: chain ends. Non-standard residues stand in square brackets, D forms with d. Primed or numbered codes have the meaning given here. No end group written: not given here. *: point of attachment. PyrS2″ = (S)-3-amino-1-((pent-4-en-1-yloxy)carbonyl)pyrrolidine-3-carboxylic acid (stapling residue), C=CCCCOC(=O)N1CC[C@@](N[*:1])(C(=O)[*:2])C1; B5(30) = 2-amino-2-(pent-4-en-1-yl)hept-6-enoic acid (2,2-bis(4-pentenyl)glycine, stitching residue), C=CCCCC(CCCC=C)(N[*:1])C(=O)[*:2]; B5(4) = 2,2-bis(4-pentenyl)glycine = 2-amino-2-(pent-4-en-1-yl)hept-6-enoic acid (stitching residue), C=CCCCC(CCCC=C)(N[*:1])C(=O)[*:2]; B5(5) = 2,2-bis(4-pentenyl)glycine, 2-amino-2-(pent-4-en-1-yl)hept-6-enoic acid (stitching residue), C=CCCCC(CCCC=C)(N[*:1])C(=O)[*:2]; TfeGA = (S)-2-amino-3-((carboxymethyl)(2,2,2-trifluoroethyl)amino)propanoic acid, O=C([C@H](CN(CC(=O)[*:3])CC(F)(F)F)N[*:1])[*:2]; PyrS2 = (S)-3-amino-1-((pent-4-en-1-yloxy)carbonyl)pyrrolidine-3-carboxylic acid, C=CCCCOC(=O)N1CC[C@@](N[*:1])(C(=O)[*:2])C1; B5(3) = 2,2-bis(4-pentenyl)glycine (stitching residue), C=CCCCC(CCCC=C)(N[*:1])C(=O)[*:2]; B5 = 2-amino-2-(pent-4-en-1-yl)hept-6-enoic acid, C=CCCCC(CCCC=C)(N[*:1])C(=O)[*:2]; ProSAm3 = (allylsulfonyl)-D-proline, C=CCS(=O)(=O)N1CCC[C@@H]1C(=O)*; Phe(3-Ph) = N[C@@H](Cc1cccc(-c2ccccc2)c1)C(=O)O; Phe(3-COOH) = N[C@@H](Cc1cccc(C(=O)O)c1)C(=O)O; Phe(2-CF3) = N[C@@H](Cc1ccccc1C(F)(F)F)C(=O)O; Asp(3,3-Me2) = CC(C)(C(=O)O)[C@H](N)C(=O)O; Asp(3R-OH) = N[C@H](C(=O)O)[C@@H](O)C(=O)O; Phe(2-Cl) = N[C@@H](Cc1ccccc1Cl)C(=O)O; Phe(3-F) = N[C@@H](Cc1cccc(F)c1)C(=O)O; Phe(4-F) = N[C@@H](Cc1ccc(F)cc1)C(=O)O; Bta = N[C@@H](Cc1csc2ccccc12)C(=O)O; Lys(iPr) = CC(C)NCCCC[C@H](N)C(=O)O; αAllylPro = C=CC[C@@]1(C(=O)O)CCCN1; Azidoacetyl = [N-]=[N+]=NCC(=O)*; tBuAla = CC(C)(C)C[C@H](N)C(=O)O; 3Thi = N[C@@H](Cc1ccsc1)C(=O)O; 2F3MeF″ = Phe derivative; Ac3c = NC1(C(=O)O)CC1; ClAc = O=C(CCl)*

For the first assay, the target named is full-length beta-Catenin (Uniprot ID P35222) (Homo sapiens (Human)) (UniProt P35222). Nature of the assay: fluorescence polarization competition; 10 nM full-length beta-catenin + 10 nM 5FAM-TCF4(10-53) probe. On the technique in general: In fluorescence polarisation assays a small probe gives low polarisation when free and higher when bound to something large.
Target sequence in this assay (P35222 whole entry): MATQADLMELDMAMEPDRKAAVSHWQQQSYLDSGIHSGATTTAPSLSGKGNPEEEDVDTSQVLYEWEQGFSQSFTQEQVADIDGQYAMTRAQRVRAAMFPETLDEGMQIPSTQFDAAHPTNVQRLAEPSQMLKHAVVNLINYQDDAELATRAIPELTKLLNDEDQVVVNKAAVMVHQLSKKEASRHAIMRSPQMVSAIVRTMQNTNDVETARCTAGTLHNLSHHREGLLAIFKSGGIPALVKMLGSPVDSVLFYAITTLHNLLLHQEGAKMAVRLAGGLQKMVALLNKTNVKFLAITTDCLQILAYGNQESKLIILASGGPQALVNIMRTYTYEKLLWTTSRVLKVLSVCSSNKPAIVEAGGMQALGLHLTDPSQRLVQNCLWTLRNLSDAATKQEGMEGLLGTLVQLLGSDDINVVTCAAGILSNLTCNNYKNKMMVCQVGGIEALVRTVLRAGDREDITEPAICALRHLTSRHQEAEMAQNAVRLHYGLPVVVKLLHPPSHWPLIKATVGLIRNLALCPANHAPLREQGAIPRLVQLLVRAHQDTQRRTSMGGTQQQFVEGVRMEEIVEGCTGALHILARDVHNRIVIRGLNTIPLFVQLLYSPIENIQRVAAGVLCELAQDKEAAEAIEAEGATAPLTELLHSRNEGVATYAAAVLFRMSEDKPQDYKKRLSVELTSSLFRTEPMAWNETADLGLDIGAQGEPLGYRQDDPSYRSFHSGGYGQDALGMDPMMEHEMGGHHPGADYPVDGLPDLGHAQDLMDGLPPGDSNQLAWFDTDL
What is called EC50 is the concentration that produces a half-maximal response. As for Ac-[αAllylPro]D[tBuAla][B5]D[TfeGA]AAFN[PyrS2][3Thi][Bta]Y-NH2 (staple 1-4, 4-11; also: earlier-eluting staple isomer composition) [I-952], the EC50 is 1210 nM.

As for Ac-[αAllylPro]D[tBuAla][B5]D[TfeGA]AAFN[PyrS2][3Thi][Bta]Y-NH2 (staple 1-4, 4-11; also: later-eluting staple isomer composition) [I-953], the 50% effective concentration (EC50) turned out to be 1460 nM.

The target is the same in the next assay. The assay is described as follows: fluorescence polarization competition vs 5FAM-TCF4(10-53) on full-length beta-catenin.
Usually IC50 stands for the concentration that inhibits the measured activity by half. With Ac-[αAllylPro]D[tBuAla][B5(30)]NTAAFN[PyrS2″][3Thi][Bta]V-NH2 (staple 1-4, 4-11; also: later-eluting HPLC isomer) [I-1879], the IC50 worked out at 567 nM.

Molecule Ac-[αAllylPro]D[tBuAla][B5(5)]NTAAFN[PyrS2″][3Thi]WQ-NH2 (staple 1-4, 4-11; also: separately listed staple isomer composition) [I-1877] showed an IC50 of 1520 nM.

As for Ac-[αAllylPro]D[tBuAla][B5(30)]NTAAFR[PyrS2][3Thi][Bta]Q-NH2 (staple 1-4, 4-11; also: later-eluting HPLC isomer) [I-1883], the IC50 was 884 nM.

Take Ac-[αAllylPro]D[tBuAla][B5(30)]NTAAFN[PyrS2][3Thi][Bta]L-NH2 (staple 1-4, 4-11; also: later-eluting HPLC isomer) [I-1881]: the IC50 is 743 nM.

For Ac-[αAllylPro]D[tBuAla][B5]D[TfeGA]AAFN[PyrS2][3Thi][Bta]Y-NH2 (staple 1-4, 4-11; also: earlier-eluting staple isomer composition) [I-952], the half-maximal inhibitory concentration (IC50) worked out at 1210 nM.

As to Ac-[αAllylPro]D[tBuAla][B5(30)]NTAAFR[PyrS2][3Thi][Bta]Q-NH2 (staple 1-4, 4-11; also: earlier-eluting HPLC isomer) [I-1882], the IC50 was 397 nM.

Ac-[αAllylPro]DK(Azidoacetyl)[B5(4)]DDAAFN[PyrS2″][3Thi][Bta]Q-NH2 (staple 1-4, 4-11) [I-880]: the EC50 is 6 nM.

Molecule Ac-[αAllylPro]D[tBuAla][B5(5)]NTAAFN[PyrS2″][3Thi]WQ-NH2 (staple 1-4, 4-11; also: separately listed staple isomer composition) [I-1876] showed an IC50 of 1340 nM.

Turning to Ac-[αAllylPro]D[tBuAla][B5(30)]NTAAFN[PyrS2][3Thi][Bta]L-NH2 (staple 1-4, 4-11; also: earlier-eluting HPLC isomer) [I-1880], the IC50 is 868 nM.

The molecule Ac-[αAllylPro]D[tBuAla][B5(5)]NTAAFN[PyrS2″][3Thi][Bta]V-NH2 (staple 1-4, 4-11; also: separately listed staple isomer composition) [I-1878] registered an IC50 of 458 nM.

Ac-[αAllylPro]D[tBuAla][B5(4)]DDAAFN[PyrS2″][3Thi][Bta]K(Azidoacetyl)-NH2 (staple 1-4, 4-11) [I-878] had an EC50 of 6 nM.

On to Ac-[αAllylPro]D[tBuAla][B5(4)]DDK(Azidoacetyl)AFN[PyrS2″][3Thi][Bta]Q-NH2 (staple 1-4, 4-11) [I-879], for which the EC50 stood at 6 nM.

For Ac-[αAllylPro]D[tBuAla][B5]D[TfeGA]AAFN[PyrS2][3Thi][Bta]Y-NH2 (staple 1-4, 4-11; also: later-eluting staple isomer composition) [I-953], the IC50 was determined as 1460 nM.

For another assay the target is unchanged. Nature of the assay: fluorescence polarization competition; full-length beta-catenin, competitor 5FAM-TCF4(10-53).
As to Ac-[αAllylPro]D[tBuAla][B5(4)]D[TfeGA][Lys(iPr)]AFT[PyrS2″][3Thi][Bta]L-NH2 (staple 1-4, 4-11; also: -CH=CH- in each staple reduced to -CH2-CH2-) [I-1766], the IC50 turned out to be 267 nM.

Ac-[αAllylPro]D[tBuAla][B5(4)]D[TfeGA][Lys(iPr)]AFL[PyrS2″][3Thi][Bta]F-NH2 (staple 1-4, 4-11; also: -CH=CH- in each staple reduced to -CH2-CH2-) [I-1767]: the IC50 was 327 nM.

In the case of B1, the IC50 was determined as 499 nM.

On to Ac-[αAllylPro]D[tBuAla][B5(4)]D[TfeGA][Lys(iPr)]AFL[PyrS2″][3Thi][Bta]L-NH2 (staple 1-4, 4-11; also: -CH=CH- in each staple reduced to -CH2-CH2-) [I-1765], for which the IC50 was 667 nM.

Ac-[αAllylPro]D[tBuAla][B5(3)]D[Phe(3-COOH)]AAFL[PyrS2″][Phe(3-Ph)][2F3MeF″]Q-NH2 (staple 1-4, 4-11) [I-2256]: the IC50 came out at 8410 nM.

On to [ProSAm3]D[tBuAla][B5(3)]D[TfeGA]AAFL[PyrS2″][3Thi][Bta]Q-NH2 (staple (positions not given here); staple 4-11; not fully specified (bridges)) [I-2266], for which the IC50 came to 266 nM.

With Ac-[αAllylPro]D[tBuAla][B5(5)]D[TfeGA][Lys(iPr)]AFT[PyrS2″][3Thi][Bta]L-NH2 (staple 1-4, 4-11) [I-1760], the IC50 is 32 nM.

Molecule Ac-[αAllylPro]D[tBuAla][B5(5)]D[Phe(3-COOH)]AAFL[PyrS2″][Phe(2-CF3)][Bta]QL[Ac3c]-NH2 (staple 1-4, 4-11) [I-2389] registered an IC50 of 72 nM.

The molecule Ac-[αAllylPro]D[tBuAla][B5(5)]D[TfeGA][Lys(iPr)]AFL[PyrS2″][3Thi][Bta]V-NH2 (staple 1-4, 4-11) [I-1763] yielded a 50% inhibitory concentration (IC50) of 52 nM.

As for Ac-[αAllylPro]D[tBuAla][B5(3)]D[Phe(3-COOH)]AAFL[PyrS2″][Phe(3-F)][Bta]A-NH2 (staple 1-4, 4-11) [I-2261], the IC50 is 34 nM.

Ac-[αAllylPro]D[tBuAla][B5(5)]D[TfeGA][Lys(iPr)]AFL[PyrS2″][3Thi][Bta]F-NH2 (staple 1-4, 4-11) [I-1761] yielded an IC50 of 39 nM.

Regarding Ac-[αAllylPro]D[tBuAla][B5(5)]D[TfeGA][Lys(iPr)]AFL[PyrS2″][3Thi][Bta]L-NH2 (staple 1-4, 4-11) [I-1759], the IC50 was found to be 57 nM.

ClAc-[αAllylPro]D[tBuAla][B5(3)]D[Phe(3-COOH)]AAFL[PyrS2″][Phe(2-Cl)][Bta]A-NH2 (staple 1-4, 4-11) [I-2253] showed an IC50 of 189 nM.

In the case of Ac-[αAllylPro]D[tBuAla][B5(3)]D[Phe(3-COOH)]AAFL[PyrS2″][Phe(4-F)][Bta]A-NH2 (staple 1-4, 4-11) [I-2263], the IC50 amounted to 47 nM.

Ac-[αAllylPro]D[tBuAla][B5(5)]D[TfeGA][Lys(iPr)]AFT[PyrS2″][3Thi][Bta]V-NH2 (staple 1-4, 4-11; also: -CH=CH- in each staple reduced to -CH2-CH2-) [I-1770] had an IC50 of 175 nM.

Ac-[αAllylPro]D[tBuAla][B5(5)]D[TfeGA][Lys(iPr)]AFT[PyrS2″][3Thi][Bta]V-NH2 (staple 1-4, 4-11) [I-1764] registered an IC50 of 23 nM.

As to Ac-[αAllylPro]D[tBuAla][B5(4)]D[TfeGA]AAFT[PyrS2″][3Thi][Bta]V-NH2 (staple 1-4, 4-11; also: -CH=CH- in each staple reduced to -CH2-CH2-) [I-1758], the IC50 is 235 nM.

Turning to Ac-[αAllylPro]D[tBuAla][B5(4)][Asp(3,3-Me2)][TfeGA]AAFL[PyrS2″][3Thi][Bta]Q-NH2 (staple 1-4, 4-11) [I-1771], the IC50 worked out at 209 nM.

Ac-[αAllylPro]D[tBuAla][B5(4)]D[TfeGA][Lys(iPr)]AFL[PyrS2″][3Thi][Bta]V-NH2 (staple 1-4, 4-11; also: -CH=CH- in each staple reduced to -CH2-CH2-) [I-1769] had an IC50 of 419 nM.

Ac-[αAllylPro][Asp(3R-OH)][tBuAla][B5(3)]D[Phe(3-COOH)]AAFL[PyrS2″][3Thi][Bta]A-NH2 (staple 1-4, 4-11) [I-2258] had an IC50 of 272 nM.
